According to US20240182536A1 (MURAL ONCOLOGY, published 2024):
Changes are numbered by the printed parent chain.

What was measured:
Assay in all cases: cell-based or functional assay
[1] = target: T1, IL-18 variant G3H, N91V, K53S (human, UniProt Q14116 37-193)
T1 chain: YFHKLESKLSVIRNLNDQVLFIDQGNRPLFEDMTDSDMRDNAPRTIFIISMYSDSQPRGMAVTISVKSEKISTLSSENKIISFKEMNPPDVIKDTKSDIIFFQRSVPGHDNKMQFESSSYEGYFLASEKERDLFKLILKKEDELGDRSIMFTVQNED

WT human IL-18 [2] = target: T2, WT human IL-18 (human, UniProt Q14116 37-193)
T2 sequence: T1 chain with H3G, M38C, S53K, S68C, S76C, V91N, S127C

IL-18 variant G3E, K53S [3] = target: T3, IL-18 variant G3E, K53S (human, UniProt Q14116 37-193)
T3 chain: T1 chain with H3E, V91N

WT IL-18-MonoFc = WT IL-18-MonoFc (human)
WT IL-18-MonoFc (human), sequence (chain, as listed by the source): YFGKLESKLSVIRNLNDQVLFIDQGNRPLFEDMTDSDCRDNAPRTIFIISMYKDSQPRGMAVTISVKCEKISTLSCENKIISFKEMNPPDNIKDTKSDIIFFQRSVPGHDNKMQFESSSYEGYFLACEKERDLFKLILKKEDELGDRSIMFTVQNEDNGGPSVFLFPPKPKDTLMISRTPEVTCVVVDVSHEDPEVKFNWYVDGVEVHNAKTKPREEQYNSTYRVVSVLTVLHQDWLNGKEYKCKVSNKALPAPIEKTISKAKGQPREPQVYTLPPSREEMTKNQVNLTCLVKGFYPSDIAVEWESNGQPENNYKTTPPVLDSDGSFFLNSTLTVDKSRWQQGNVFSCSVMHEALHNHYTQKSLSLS

IL-18 variant G3T, M60K = target: T4, IL-18 variant G3T, M60K (human, UniProt Q14116 37-193)
T4 chain: T1 chain with H3T, S53K, M60K, V91N

[4] = target: T5, IL-18 variant G3T, M60K, D157E (human, UniProt Q14116 37-192)
T5 chain: T1 chain with H3T, S53K, M60K, V91N, D157E

IL-18 variant G3V, M60K = target: T6, IL-18 variant G3V, M60K (human, UniProt Q14116 37-193)
T6 chain: T1 chain with H3V, S53K, M60K, V91N

[5] = target: T1, IL-18 variant G3H, N91V, K53S
WT human IL-18 [6] = target: T2, WT human IL-18; remark: listed apart in the source
IL-18 variant G3T, K53S = target: T7, IL-18 variant G3T, K53S (human, UniProt Q14116 37-193)
T7 chain: T1 chain with H3T, V91N

IL-18 variant G3E, K53S [7] = target: T3, IL-18 variant G3E, K53S
WT human IL-18 [8] = target: T2, WT human IL-18; remark: listed apart in the source
IL-18 variant G3R, K53S = target: T8, IL-18 variant G3R, K53S (human, UniProt Q14116 37-193)
T8 chain: T1 chain with H3R, V91N

B1: human IL-18 binding protein (IL-18BP) (other, UniProt O95998 31-194, looked up)
chain: TPVSQTTTAATASVRSTKDPCPSQPPVFPAAKQCPALEVTWPEVEVPLNGTLSLSCVACSRFPNFSILYWLGNGSFIEHLPGRLWEGSTSRERGSTGTQLCKALVLEQLTPALHSTNFSCVLVDPEQVVQRHVVLAQLWAGLRATLPPTQEALPSSHSSPQQQG
With B1 the “IC50 (read off the curve); IFN gamma from human PBMCs, G3H/K53S/N91V at 1000 pM, human IL-18BP titrated; partial inhibition” value [1] was about 20000 pM, the “IC50 (read off the curve); IFN gamma from human PBMCs, WT IL-18 at 200 pM, human IL-18BP titrated” value (WT human IL-18 [2]) was about 100 pM and the “IC50 (read off the curve); IFN gamma from human PBMCs, G3E/K53S at 2000 pM, human IL-18BP titrated; partial inhibition” value (IL-18 variant G3E, K53S [3]) was about 1000 pM. For the same binder, the “Potency - with IL-18BP (IC50), IFN gamma expression in PBMCs” value (“Potency - with IL-18BP (IC50)” below) (WT IL-18-MonoFc) was 0.096 nM, the “Potency - with IL-18BP (IC50)” value (IL-18 variant G3T, M60K) was over 100 nM and the “Potency - with IL-18BP (IC50)” value [4] was over 100 nM. For the same binder, the “Potency - with IL-18BP (IC50)” value (IL-18 variant G3V, M60K) was over 100 nM, the “Potency - with IL-18BP (IC50)” value [5] was 24.3 nM and the “Potency - with IL-18BP (IC50)” value (WT human IL-18 [6]) was 0.096 nM. The “Potency - with IL-18BP (IC50)” value (IL-18 variant G3T, K53S) was 15.3 nM and the “Potency - with IL-18BP (IC50)” value (IL-18 variant G3E, K53S [7]) was 0.925 nM.

B2: mouse IL-18BP (other, UniProt Q9Z0M9 29-193, looked up)
chain: TSAPQTTATVLTGSSKDPCSSWSPAVPTKQYPALDVIWPEKEVPLNGTLTLSCTACSRFPYFSILYWLGNGSFIEHLPGRLKEGHTSREHRNTSTWLHRALVLEELSPTLRSTNFSCLFVDPGQVAQYHIILAQLWDGLKTAPSPSQETLSSHSPVSRSAGPGVA
In the case of B2, the “IC50 (read off the curve); IFN gamma from human PBMCs, WT IL-18 at 200 pM, mouse IL-18BP titrated” value (WT human IL-18 [8]) is reported as about 2000 pM and the “IC50 (read off the curve); IFN gamma from human PBMCs, G3R/K53S at 200 pM, mouse IL-18BP titrated; partial inhibition” value (IL-18 variant G3R, K53S) is reported as about 10000 pM.
